In patent US20230018405A1:
Ends that are not written are not given here. EGFP = GFP fused N-terminally (GFP-linker-3.2iPA), EGFP per filing

Experiments:
[1] = target: human wide-type Cav3.2 (human) (UniProt O95180); assay: cell-based or functional assay
rat Cav3.2 (rat) = rat Cav3.2 (rat) (UniProt Q9EQ60); assay: cell-based or functional assay
Chain of UniProt Q9EQ60 (Q9EQ60 whole entry): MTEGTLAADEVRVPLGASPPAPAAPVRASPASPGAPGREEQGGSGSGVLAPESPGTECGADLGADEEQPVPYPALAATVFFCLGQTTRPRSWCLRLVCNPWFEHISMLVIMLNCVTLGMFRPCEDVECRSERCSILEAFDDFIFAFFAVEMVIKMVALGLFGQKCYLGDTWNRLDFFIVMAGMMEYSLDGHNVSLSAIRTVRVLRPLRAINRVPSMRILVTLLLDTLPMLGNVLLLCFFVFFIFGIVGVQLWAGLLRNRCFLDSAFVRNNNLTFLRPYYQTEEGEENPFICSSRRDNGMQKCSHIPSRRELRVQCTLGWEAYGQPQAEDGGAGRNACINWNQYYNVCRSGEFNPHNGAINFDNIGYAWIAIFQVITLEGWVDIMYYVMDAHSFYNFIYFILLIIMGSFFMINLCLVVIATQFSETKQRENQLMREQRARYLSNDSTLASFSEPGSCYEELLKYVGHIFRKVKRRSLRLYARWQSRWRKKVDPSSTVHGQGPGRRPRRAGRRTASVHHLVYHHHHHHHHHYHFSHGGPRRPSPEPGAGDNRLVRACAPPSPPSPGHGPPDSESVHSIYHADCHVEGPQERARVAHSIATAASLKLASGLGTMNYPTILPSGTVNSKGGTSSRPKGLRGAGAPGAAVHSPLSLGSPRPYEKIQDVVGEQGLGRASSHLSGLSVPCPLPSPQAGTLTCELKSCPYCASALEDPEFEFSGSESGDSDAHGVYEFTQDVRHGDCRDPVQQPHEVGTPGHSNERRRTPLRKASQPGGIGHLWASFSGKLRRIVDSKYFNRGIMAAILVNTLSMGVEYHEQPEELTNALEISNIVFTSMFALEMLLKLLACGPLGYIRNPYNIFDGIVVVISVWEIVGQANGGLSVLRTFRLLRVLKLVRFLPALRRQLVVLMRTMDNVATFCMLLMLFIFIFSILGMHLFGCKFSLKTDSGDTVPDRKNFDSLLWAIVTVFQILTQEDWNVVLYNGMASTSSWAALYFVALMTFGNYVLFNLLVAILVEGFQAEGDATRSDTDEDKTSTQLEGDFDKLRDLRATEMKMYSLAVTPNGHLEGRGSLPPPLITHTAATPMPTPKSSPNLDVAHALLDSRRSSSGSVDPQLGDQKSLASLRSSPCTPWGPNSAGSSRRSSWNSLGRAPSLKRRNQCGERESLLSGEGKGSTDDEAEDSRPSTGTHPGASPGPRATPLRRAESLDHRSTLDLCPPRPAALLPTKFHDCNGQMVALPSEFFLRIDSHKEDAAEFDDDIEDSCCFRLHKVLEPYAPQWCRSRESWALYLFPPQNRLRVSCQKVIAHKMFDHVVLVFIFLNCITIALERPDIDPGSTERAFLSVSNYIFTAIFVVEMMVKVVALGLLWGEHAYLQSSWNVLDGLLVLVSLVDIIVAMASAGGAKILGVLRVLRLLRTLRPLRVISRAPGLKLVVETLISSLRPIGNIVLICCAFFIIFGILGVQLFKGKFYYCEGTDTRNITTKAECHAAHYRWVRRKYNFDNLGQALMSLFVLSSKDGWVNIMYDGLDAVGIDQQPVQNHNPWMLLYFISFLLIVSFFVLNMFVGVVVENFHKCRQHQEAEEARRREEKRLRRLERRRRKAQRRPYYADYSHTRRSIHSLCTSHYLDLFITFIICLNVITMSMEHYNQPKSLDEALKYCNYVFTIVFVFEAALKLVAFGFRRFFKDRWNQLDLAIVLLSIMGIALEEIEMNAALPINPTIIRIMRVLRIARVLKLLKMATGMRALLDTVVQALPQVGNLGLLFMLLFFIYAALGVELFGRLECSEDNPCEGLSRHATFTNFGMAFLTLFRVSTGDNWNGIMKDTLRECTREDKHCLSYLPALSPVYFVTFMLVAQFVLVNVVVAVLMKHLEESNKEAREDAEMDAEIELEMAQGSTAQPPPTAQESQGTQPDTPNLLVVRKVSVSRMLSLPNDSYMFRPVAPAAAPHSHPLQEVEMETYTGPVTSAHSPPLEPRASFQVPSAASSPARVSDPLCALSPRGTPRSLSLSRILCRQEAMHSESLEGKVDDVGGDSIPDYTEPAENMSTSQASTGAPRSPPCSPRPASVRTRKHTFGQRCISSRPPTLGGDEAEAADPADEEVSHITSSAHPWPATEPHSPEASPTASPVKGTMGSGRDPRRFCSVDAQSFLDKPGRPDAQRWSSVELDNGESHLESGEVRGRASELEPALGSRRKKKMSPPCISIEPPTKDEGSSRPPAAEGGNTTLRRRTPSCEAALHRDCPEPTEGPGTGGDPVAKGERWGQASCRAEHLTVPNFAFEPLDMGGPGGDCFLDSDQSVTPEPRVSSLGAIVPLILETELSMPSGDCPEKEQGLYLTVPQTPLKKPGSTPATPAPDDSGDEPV

Chain of UniProt O95180 (O95180 whole entry): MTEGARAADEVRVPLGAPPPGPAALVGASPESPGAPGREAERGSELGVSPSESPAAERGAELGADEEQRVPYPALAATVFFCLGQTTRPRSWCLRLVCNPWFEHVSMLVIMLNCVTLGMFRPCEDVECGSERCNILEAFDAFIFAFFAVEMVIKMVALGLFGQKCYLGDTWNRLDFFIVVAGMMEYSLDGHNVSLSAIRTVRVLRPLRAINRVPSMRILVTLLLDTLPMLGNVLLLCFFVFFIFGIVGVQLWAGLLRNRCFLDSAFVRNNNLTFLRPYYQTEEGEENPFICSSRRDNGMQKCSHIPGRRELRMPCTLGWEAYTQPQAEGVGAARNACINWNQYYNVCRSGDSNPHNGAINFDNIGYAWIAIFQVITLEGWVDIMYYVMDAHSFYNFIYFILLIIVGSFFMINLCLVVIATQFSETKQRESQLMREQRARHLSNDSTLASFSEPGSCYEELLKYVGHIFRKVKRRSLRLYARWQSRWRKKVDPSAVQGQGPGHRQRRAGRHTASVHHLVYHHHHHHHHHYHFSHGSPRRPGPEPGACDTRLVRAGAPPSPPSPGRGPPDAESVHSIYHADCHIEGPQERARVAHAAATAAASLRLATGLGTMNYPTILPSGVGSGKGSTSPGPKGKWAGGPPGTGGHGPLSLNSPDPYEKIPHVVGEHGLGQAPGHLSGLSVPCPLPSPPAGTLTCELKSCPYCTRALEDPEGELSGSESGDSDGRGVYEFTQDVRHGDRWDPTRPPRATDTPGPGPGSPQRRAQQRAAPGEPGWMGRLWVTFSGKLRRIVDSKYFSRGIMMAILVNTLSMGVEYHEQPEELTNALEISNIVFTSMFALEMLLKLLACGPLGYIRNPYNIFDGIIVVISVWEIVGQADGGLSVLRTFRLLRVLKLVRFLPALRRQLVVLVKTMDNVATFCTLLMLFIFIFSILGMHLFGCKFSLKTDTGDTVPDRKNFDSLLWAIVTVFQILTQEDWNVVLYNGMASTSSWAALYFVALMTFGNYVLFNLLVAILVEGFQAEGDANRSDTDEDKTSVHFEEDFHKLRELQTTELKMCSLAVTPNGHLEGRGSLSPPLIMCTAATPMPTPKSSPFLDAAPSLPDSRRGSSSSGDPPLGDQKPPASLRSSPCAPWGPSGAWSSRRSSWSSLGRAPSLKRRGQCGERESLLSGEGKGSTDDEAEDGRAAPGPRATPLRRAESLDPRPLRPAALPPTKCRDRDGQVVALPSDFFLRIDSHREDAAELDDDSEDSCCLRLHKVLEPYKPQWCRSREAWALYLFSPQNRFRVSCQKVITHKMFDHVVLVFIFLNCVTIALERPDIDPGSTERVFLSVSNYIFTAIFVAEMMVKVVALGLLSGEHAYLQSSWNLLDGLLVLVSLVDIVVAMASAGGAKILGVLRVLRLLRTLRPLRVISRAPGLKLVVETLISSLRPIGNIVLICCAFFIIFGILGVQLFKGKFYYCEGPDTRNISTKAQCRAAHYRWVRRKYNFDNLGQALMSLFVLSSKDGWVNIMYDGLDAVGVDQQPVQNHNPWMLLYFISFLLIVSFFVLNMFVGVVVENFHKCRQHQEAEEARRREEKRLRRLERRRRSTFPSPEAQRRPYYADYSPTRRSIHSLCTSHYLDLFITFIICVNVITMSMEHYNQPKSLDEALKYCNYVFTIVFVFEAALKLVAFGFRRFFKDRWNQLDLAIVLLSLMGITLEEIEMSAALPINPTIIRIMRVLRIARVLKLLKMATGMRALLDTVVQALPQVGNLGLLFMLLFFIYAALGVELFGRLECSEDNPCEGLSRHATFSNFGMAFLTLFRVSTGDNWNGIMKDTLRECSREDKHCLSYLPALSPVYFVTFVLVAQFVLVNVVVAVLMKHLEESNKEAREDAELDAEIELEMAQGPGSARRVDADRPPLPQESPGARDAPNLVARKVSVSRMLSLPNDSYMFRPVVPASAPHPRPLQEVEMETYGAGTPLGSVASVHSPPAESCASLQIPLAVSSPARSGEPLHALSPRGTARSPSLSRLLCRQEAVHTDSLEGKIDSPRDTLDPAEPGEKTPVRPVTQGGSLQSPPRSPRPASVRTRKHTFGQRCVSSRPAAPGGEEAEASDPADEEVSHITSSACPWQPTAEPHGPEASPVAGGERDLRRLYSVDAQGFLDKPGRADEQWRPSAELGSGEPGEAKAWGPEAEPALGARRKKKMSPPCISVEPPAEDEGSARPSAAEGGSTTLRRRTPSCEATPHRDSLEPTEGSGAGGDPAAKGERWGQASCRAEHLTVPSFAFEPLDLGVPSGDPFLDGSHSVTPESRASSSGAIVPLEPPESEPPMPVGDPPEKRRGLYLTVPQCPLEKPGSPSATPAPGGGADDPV

Binder	Activation curves (G/Gmax), V½ [1] [mV]	Inactivation curves (I/Imax), V½ [1] [mV]	Peak T-type calcium currents, HEK3.2 cells (second institution) [1] [pA/pF]	reduction of peak Cav3.2 current density (ICa3.2), whole-cell voltage-clamp, HEK3.2 cells [1] [%]	inhibition of peak LVA ICa (pA/pF), dissociated rat DRG neurons after AAV6 injection (rat Cav3.2 (rat)) [%]	enhancement of peak LVA ICa, dissociated rat DRG neurons after AAV6 injection (rat Cav3.2 (rat)) [%]
{EGFP}-GLRSRAQASNSAVDGTAGPGSRRREEKRLRRLERRRRKAQRRP (designed binder, not shown: large carriers) [GFP3.2iPA2]	-54.6	-68.8	11.8	60	60	–
GLRSRAQASNSAVDGTAGPGSPAAPVRASPASPGAPGREEQ (designed binder, not shown: large carriers) [GFP3.2NP]	-54.1	-64.9	41.1	–	–	–

More lines, now with the values ahead:

Activation curves (G/Gmax), V½ [1] [mV]	Inactivation curves (I/Imax), V½ [1] [mV]	Peak T-type calcium currents, HEK3.2 cells (second institution) [1] [pA/pF]	reduction of peak Cav3.2 current density (ICa3.2), whole-cell voltage-clamp, HEK3.2 cells [1] [%]	inhibition of peak LVA ICa (pA/pF), dissociated rat DRG neurons after AAV6 injection (rat Cav3.2 (rat)) [%]	enhancement of peak LVA ICa, dissociated rat DRG neurons after AAV6 injection (rat Cav3.2 (rat)) [%]	Binder
-56.1	-69.8	20.2	70	70	–	{EGFP}-GLRSRAQASNSAVDGTAGPGSRRSSWNSLGRAPSLKRR (designed binder, not shown: large carriers) [GFP3.2iPA1]
–	–	–	–	–	30	{EGFP}-GLRSRAQASNSAVDGTAGPGSKRRSLRLYARWQSRWRKK (designed binder, not shown: large carriers) [GFP3.2iPA3]
–	–	–	40	–	–	{EGFP}-GLRSRAQASNSAVDGTAGPGSRGRASELEPALGSRRKKKMSPP (designed binder, not shown: large carriers) [GFP3.2iPA4]
